From the supplement of paper PMC9732359
± gives the uncertainty stated by the source.

Assay: protein stability index of a GFP-peptide fusion (yeast GPS) (PSI 1-4); higher = more stable; sorted into four equal gates, so the index is relative within each strain
How it was run: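 Mid-log yeast cultures in leucine-free medium, carrying a pooled plasmid library, were sorted into four equal gates by their GFP/Cherry fluorescence ratio. Each plasmid expressed Cherry along with GFP fused upstream of a tiled 17-residue yeast protein peptide. Plasmids recovered from each gate were PCR-amplified and Illumina-sequenced, with reads assigned to strains by barcodes. The protein stability index was obtained by summing each gate's read frequency weighted by its gate number.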

Row | Sequence | protein stability index (doa10∆) | protein stability index (pdr5∆) | protein stability index (san1∆) | protein stability index (ubr1∆)
1 | GAEDPKVLINDQLSTIS [SWI1] | 3.27 ± 0.18 | 3.24 ± 0.25 | 3.32 ± 0.21 | –
2 | SKKAEKTGTKPAAVFTE [RPL4A] | 2.52 ± 0.068 | 2.79 ± 0.085 | 2.44 ± 0.072 | 2.76 ± 0.061
3 | IPSAAFNFFEPIKEAKI [YMR129W/POM152] | 1.98 ± 0.039 | 2.27 ± 0.037 | 2.15 ± 0.044 | 2.44 ± 0.025
4 | TIDNIDSENFSFEKLYE [YMR129W/POM152] | 3.3 ± 0.085 | 3.26 ± 0.076 | 3.33 ± 0.074 | 3.17 ± 0.047
5 | LNINNPNFLIMQGKITK [SMC2] | 3.39 ± 0.26 | 2.47 ± 0.19 | 2.87 ± 0.13 | –
6 | ITLFVLVSVVEAFIASG [FAS2] | 1.53 ± 0.048 | 1.41 ± 0.043 | 2.06 ± 0.061 | 1.8 ± 0.051
7 | MDFANLWVFQAFTCFCI [SRB8] | 1.55 ± 0.054 | 1.2 ± 0.043 | 1.16 ± 0.08 | 1.21 ± 0.042
8 | GKGTGKTAMAELALLNH [BRR2] | 3.19 ± 0.11 | 3.51 ± 0.15 | 3.45 ± 0.099 | 3.22 ± 0.082
9 | LSETNGLHKFVKGDLLQ [PRE10] | – | 3.28 ± 0.23 | – | 3.48 ± 0.11
10 | EDDDNEQHEEKAAEGEE [QCR6] | 3.06 ± 0.083 | 2.95 ± 0.12 | 2.95 ± 0.24 | 3.2 ± 0.072
11 | EIFAFGNIKDLPENIIL [CSN9] | 2.7 ± 0.066 | 2.92 ± 0.056 | 2.8 ± 0.043 | 2.93 ± 0.042
12 | ECPGHFGHIDLAKPVFH [RPO21] | 2.69 ± 0.064 | 2.88 ± 0.06 | 2.74 ± 0.048 | 2.92 ± 0.052
13 | DTVAELQAQLDYLNAEL [FAS2] | 2.81 ± 0.092 | 3.08 ± 0.081 | 3.12 ± 0.049 | 2.96 ± 0.09
14 | PLLAQLFKTLFKKLTKD [RPB2] | 2.65 ± 0.04 | 1.29 ± 0.039 | 1.18 ± 0.092 | 1.16 ± 0.03
15 | LGYNFDGSAIEDDDIRS [SNF5] | 3.39 ± 0.086 | 3.26 ± 0.072 | 3.35 ± 0.068 | 3.35 ± 0.05
16 | EDTNLAAIHAKRVTIQK [HHT1] | 2.88 ± 0.078 | 3.04 ± 0.099 | 2.97 ± 0.059 | 2.92 ± 0.056
17 | DSLIFKDSSLNYSSESY [YJL039C/NUP192] | 3.43 ± 0.089 | 3.25 ± 0.1 | 2.71 ± 0.21 | 3.17 ± 0.14
18 | VKRLLFTIRGFKQKLNE [MTW1] | 3.04 ± 0.058 | 2.76 ± 0.048 | 2.86 ± 0.044 | 3.14 ± 0.043
19 | SLKGVDPKFRRNHKHAL [RPL29] | 1.45 ± 0.068 | 1.77 ± 0.077 | 1.78 ± 0.082 | 1.78 ± 0.12
20 | FSKILPAALDGLMKSYK [ESC2] | 2.71 ± 0.059 | 2.28 ± 0.069 | 2.73 ± 0.051 | 2.54 ± 0.056
21 | TPSSDQNPLPTRFEVEL [SOH1] | 3.35 ± 0.088 | 3.1 ± 0.061 | 2.65 ± 0.075 | 3.19 ± 0.049
22 | EDEAALAKLVSTIDANF [RPL8A] | 2.91 ± 0.065 | 3.02 ± 0.068 | 2.66 ± 0.062 | 2.85 ± 0.05
23 | EVKTPKIPLFTFAKSKN [SIR4] | 2.77 ± 0.054 | 2.98 ± 0.06 | 2.57 ± 0.043 | 2.81 ± 0.042
24 | MKNPDVEFCGYSIPHPS [RPC19] | 2.81 ± 0.082 | 3.11 ± 0.064 | 2.94 ± 0.049 | 3.04 ± 0.085
25 | IHIDALELAGMDALYEK [SIR3] | 2.97 ± 0.1 | 3.04 ± 0.098 | 2.71 ± 0.07 | 2.93 ± 0.079
26 | IIVQYLTKFRQKLMQLV [RGR1] | 2.65 ± 0.089 | 2.88 ± 0.16 | 2.56 ± 0.083 | 2.46 ± 0.1
27 | TSVTRRSPVFALNMLPS [GRR1] | 1.45 ± 0.038 | 1.61 ± 0.037 | 1.51 ± 0.061 | 1.73 ± 0.033
